These results are taken from article doi:10.1101/2023.03.17.532992.

Test [1] concerns the target nucleosome core particle (recombinant X. laevis histone octamer on 601 positioning DNA) (X. laevis). Kind of test: native gel or EMSA. (In general: A gel shift assay detects complexes by their altered migration in electrophoresis.)
Test [2] has the same target. Kind of test: MST.
The target is the same in test [3]. The experiment in a line: AUC.
The target is the same in test [4]. Kind of test: SEC-MALS. (In general: In gel filtration, larger molecules generally elute earlier.)

Turning to “BCL7C, full length (from UniProt Q8WUZ0 1-217) (natural protein)”, the Kd – broadly, the free concentration of one partner at which half of the binding sites on the other are occupied at equilibrium, for simple one-to-one binding – in test [1] was 124 nM.
As for “BCL7A, full length human (isoform Q4VC05-2, 231 amino acids) (from UniProt Q4VC05-2 1-231) (natural protein)”, the Kd turned out to be 230 nM in test [2] and 218 nM in test [1]. The stoichiometry N (BCL7A per NCP) in test [3] and in test [4] was 1 each time.
For the substance “BCL7A R11S mutant protein (from UniProt Q4VC05-2 1-231) (natural protein)”, the decrease of binding affinity against wild type in test [1] turned out to be 50%.
For “BCL7A (1-100) truncation mutant (from UniProt Q4VC05-2 1-100) (domain or fragment)”, in test [1], the Kd was determined as 437 nM.
As to “BCL7A P78S mutant protein (from UniProt Q4VC05-2 1-231) (natural protein)”, in test [1], the decrease of binding affinity against wild type turned out to be 50%.
